Laboratory results reported in patent publication US20190359693A1.
Numbering of substitutions follows the chain as printed.

How the values were obtained:
Assay in all cases: cell-based or functional assay
[1] = biological target: hemagglutinin (HA) of influenza B/Lee/40 (Old) (influenza B virus) (UniProt P03460)
[2] = biological target: hemagglutinin (HA) of influenza B/Malaysia/2506/04 (Victoria) (influenza B virus)
[3] = biological target: hemagglutinin (HA) of influenza B/Harbin/7/94 (Yamagata) (influenza B virus)
[4] = biological target: hemagglutinin (HA) of influenza B/Florida/04/06 (Yamagata) (influenza B virus)
[5] = biological target: hemagglutinin (HA) of influenza B/Massachusetts/02/12 (Yamagata) (influenza B virus)
[6] = biological target: hemagglutinin (HA) of influenza virus H7N7 A/PR8 H7N7-NY (influenza A virus)
[7] = biological target: hemagglutinin (HA) of influenza virus H3N2 A/Wisconsin/67/05 (influenza A virus)
[8] = biological target: hemagglutinin (HA) of influenza virus H7N3 A/NIBRG/60 (A/mallard/Netherlands/12/00) (influenza A virus)
[9] = biological target: hemagglutinin (HA) of influenza virus H1N1 A/California/07/09 (influenza A virus)
[10] = biological target: hemagglutinin (HA) of influenza virus H1N1 A/Puerto Rico/8/34-MA (influenza A virus)
[11] = biological target: hemagglutinin (HA) of influenza virus H5N1 A/Vietnam/1194/04 (influenza A virus)
[12] = biological target: hemagglutinin (HA) of influenza virus H3N2 A/Brisbane/10/07 (influenza A virus)
[13] = biological target: hemagglutinin (HA) of influenza virus H1N1 A/New Caledonia/20/99 (influenza A virus)
[14] = biological target: hemagglutinin (HA) of influenza virus B/Florida/04/06 (Yamagata) (influenza B virus)
[15] = biological target: HA of H1N1 A/Puerto Rico/8/34-MA (influenza A virus)
[16] = biological target: HA of H1N1 A/New Caledonia/20/1999 (influenza A virus)
[17] = biological target: HA of H3N2 A/Brisbane/10/2007 (influenza A virus)
[18] = biological target: HA of H5N1 A/Vietnam/1194/04 (influenza A virus)
[19] = biological target: HA of H7N3 A/NIBRG/60 (A/mallard/NL/12/00) (influenza A virus)

B1: SD3085 (VHH)
VHH: EVQLVESGGGLVQPGGSLRLSCAASGFTFSTSWMYWLRQAPGKGLEWVSVINTDGGTYYADSVKGRFTISRDNSKNTLYLQMNSLRAEDTAVYYCAKDWGGPEPTRGQGTLVTVSS
- VNA IC50 [1]: > 1000 nM
- VNA IC50 [2]: 13 nM
- VNA IC50 [3]: 228 nM
- VNA IC50 [4]: 64 nM
- VNA IC50 [5]: 32 nM

B2: MD2406 (VHH)
chain: EVQLVESGGGLVQPGGSLRLSCAVSISIFDIYAMDWYRQAPGKQRDLVATSFRDGSTNYADSVKGRFTISRDNAKNTLYLQMNSLKPEDTAVYLCHVSLYRDPLGVAGGMGVYWGKGALVTVSSGGGGSGGGGSEVQLVESGGGLVQPGGSLRLSCAVSISIFDIYAMDWYRQAPGKQRDLVATSFRDGSTNYADSVKGRFTISRDNAKNTLYLQMNSLKPEDTAVYLCHVSLYRDPLGVAGGMGVYWGKGALVTVSSGGGGSGGGGSEVQLVESGGGLVQPGGSLRLSCAVSISIFDIYAMDWYRQAPGKQRDLVATSFRDGSTNYADSVKGRFTISRDNAKNTLYLQMNSLKPEDTAVYLCHVSLYRDPLGVAGGMGVYWGKGALVTVSSGGGGSGGGGSEVQLVESGGGLVQPGGSLRLSCAVSISIFDIYAMDWYRQAPGKQRDLVATSFRDGSTNYADSVKGRFTISRDNAKNTLYLQMNSLKPEDTAVYLCHVSLYRDPLGVAGGMGVYWGKGALVTVSS
- average neutralization titer [6]: 11 nM
- average neutralization titer [7]: 4.6 nM
- average neutralization titer [8]: 4.6 nM

B3: SD3092 (VHH)
VHH: EVQLVESGGGLVQPGGSLRLSCAISGLSLDTYAVGWFRQAPGKEREGVSCISSGHGMTYYADSVKGRFTISTDNSKNTLYLQMNSLRAEDTAVYYCATESRYYCSDNWPAPQRYIYWGQGTLVTVSS
- VNA IC50 [1]: 40 nM
- VNA IC50 [2]: 40 nM
- VNA IC50 [3]: > 1000 nM
- VNA IC50 [4]: > 1000 nM
- VNA IC50 [5]: > 1000 nM

B4: SD3093 (VHH)
VHH: B3 VHH with L79V
- VNA IC50 [1]: 32 nM
- VNA IC50 [2]: 40 nM
- VNA IC50 [3]: > 1000 nM
- VNA IC50 [4]: 659 nM
- VNA IC50 [5]: 795 nM

B5: MD2322 (VHH)
chain: EVQLVESGGGLVQPGGSLRLSCAVSISIFDIYAMDWYRQAPGKQRDLVATSFRDGSTNYADSVKGRFTISRDNAKNTLYLQMNSLKPEDTAVYLCHVSLYRDPLGVAGGMGVYWGKGALVTVSSGGGGSGGGGSEVQLVESGGGLVQPGGSLRLSCAVSISIFDIYAMDWYRQAPGKQRDLVATSFRDGSTNYADSVKGRFTISRDNAKNTLYLQMNSLKPEDTAVYLCHVSLYRDPLGVAGGMGVYWGKGALVTVSSGGGGSGGGGSEVQLVESGGGLVQPGGSLRLSCAVSISIFDIYAMDWYRQAPGKQRDLVATSFRDGSTNYADSVKGRFTISRDNAKNTLYLQMNSLKPEDTAVYLCHVSLYRDPLGVAGGMGVYWGKGALVTVSS
- average neutralization titer [6]: 14.7 nM
- average neutralization titer [7]: 7.3 nM
- average neutralization titer [8]: 6.1 nM

B6: MD1215 (VHH)
chain: EVQLVESGGGLVQAGGSLKLSCAASGRTYAMGWFRQAPGKEREFVAHINALGTRTYYSDSVKGRFTISRDNAKNTEYLEMNNLKPEDTAVYYCTAQGQWRAAPVAVAAEYEFWGQGTQVTVSSAAAGGGGSGGGGSGGGGSGGGGSGGGGGGSGGGGSGGGGSGGGGSGGGGSGGGGSGGGGSEVQLVESGGGLVQAGGSLKLSCAASGRTYAMGWFRQAPGKEREFVAHINALGTRTYYSDSVKGRFTISRDNAKNTEYLEMNNLKPEDTAVYYCTAQGQWRAAPVAVAAEYEFWGQGTQVTVSS
- neutralization titer [9]: 4.1 nM
- neutralization titer [10]: 39.6 nM
- neutralization titer [7]: 34.1 nM
- neutralization titer [11]: 918 nM

B7: MD1216 (bispecific antibody)
chain: EVQLVESGGGLVQPGGSLRLSCAVSISIFDIYAMDWYRQAPGKQRDLVATSFRDGSTNYADSVKGRFTISRDNAKNTLYLQMNSLKPEDTAVYLCHVSLYRDPLGVAGGMGVYWGKGALVTVSSAAAGGGGSGGGGSGGGGSGGGGSGGGGGGSGGGGSGGGGSGGGGSGGGGSGGGGSGGGGSEVQLVESGGGLVQAGGSLKLSCAASGRTYAMGWFRQAPGKEREFVAHINALGTRTYYSDSVKGRFTISRDNAKNTEYLEMNNLKPEDTAVYYCTAQGQWRAAPVAVAAEYEFWGQGTQVTVSS
- neutralization titer [9]: 1.4 nM
- neutralization titer [10]: 9.7 nM
- neutralization titer [7]: 12.1 nM
- neutralization titer [11]: 3.4 nM

B8: MD2317 (bispecific antibody)
chain: EVQLVESGGGLVQPGGSLRLSCAVSISIFDIYAMDWYRQAPGKQRDLVATSFRDGSTNYADSVKGRFTISRDNAKNTLYLQMNSLKPEDTAVYLCHVSLYRDPLGVAGGMGVYWGKGALVTVSSGGGGSGGGGSEVQLVESGGGLVQAGDSLRISCAASGRTLSIYSMGWFRQAPGKEREFVATIGWNSGRTFYPDSLKGRFTISRDNARNTLYLQMNNLRPEDTAVYYCAAAKGPLRLSSQADYWGQGTQVTVSSGGGGSGGGGSEVQLVESGGGLVQPGGSLRLSCAATGFTLENKAIGWFRQTPGSEREGVLCISKSGSWTYYTDSMRGRFTISRDNAENTVYLQMDSLKPEDTAVYYCATTTAGGGLCWDGTTFSRLASSWGQGTQVTVSS
- average neutralization titer [6]: 12.8 nM
- average neutralization titer [7]: 12.8 nM
- average neutralization titer [8]: 12.8 nM

B9: MD1213 (VHH)
chain: EVQLVESGGGLVQAGGSLKLSCAASGRTYAMGWFRQAPGKEREFVAHINALGTRTYYSDSVKGRFTISRDNAKNTEYLEMNNLKPEDTAVYYCTAQGQWRAAPVAVAAEYEFWGQGTQVTVSSAAAGGGGSGGGGSGGGGSEVQLVESGGGLVQAGGSLKLSCAASGRTYAMGWFRQAPGKEREFVAHINALGTRTYYSDSVKGRFTISRDNAKNTEYLEMNNLKPEDTAVYYCTAQGQWRAAPVAVAAEYEFWGQGTQVTVSS
- neutralization titer [9]: 2.4 nM
- neutralization titer [10]: 27.8 nM
- neutralization titer [7]: 18.6 nM
- neutralization titer [11]: < 1000 nM

B10: MD2303 (bispecific antibody)
chain: EVQLVESGGGLVQPGGSLRLSCAVSISIFDIYAMDWYRQAPGKQRDLVATSFRDGSTNYADSVKGRFTISRDNAKNTLYLQMNSLKPEDTAVYLCHVSLYRDPLGVAGGMGVYWGKGALVTVSSGGGGSGGGGSEVQLVESGGGLVQAGGSLKLSCAASGRTYAMGWFRQAPGKEREFVAHINALGTRTYYSDSVKGRFTISRDNAKNTEYLEMNNLKPEDTAVYYCTAQGQWRAAPVAVAAEYEFWGQGTQVTVSSGGGGSGGGGSEVQLVESGGGLVQPGGSLRLSCAATGFTLENKAIGWFRQTPGSEREGVLCISKSGSWTYYTDSMRGRFTISRDNAENTVYLQMDSLKPEDTAVYYCATTTAGGGLCWDGTTFSRLASSWGQGTQVTVSS
- average neutralization titer [12]: 12.8 nM
- average neutralization titer [10]: 9.1 nM
- average neutralization titer [13]: 7.2 nM
- average neutralization titer [6]: 18.2 nM
- average neutralization titer [7]: 15 nM
- average neutralization titer [14]: 412 nM
- average neutralization titer [8]: 10.2 nM
- average neutralization titer [11]: 9.1 nM

B11: SD1034 (VHH)
VHH: EVQLVESGGGLVQAGGSLRLSCAASGTIFGIRVNTMGWYRQAPGEQRELVATITRSGGTNYADSVKDRFTISGDFAKDTVYLQMMHLKPEDTAVYYCNGRWALTDYWGQGTQVTVSS
- VNA titer [15]: 756 nM
- VNA titer [16]: 161 nM
- VNA titer [17]: > 1000 nM
- VNA titer [18]: 722 nM
- VNA titer [19]: > 1000 nM

B12: SD3087 (VHH)
VHH: EVQLLESGGGLVQPGGSLRLSCAASGFTLENKAIGWFRQAPGKEREGVLCISKSGSWTYYADSVKGRFTISRDNSKNTVYLQMNSLRPEDTAVYYCATTTAGGGLCWDGTTFSRLASSWGQGTLVTVSS
- VNA IC50 [1]: 91 nM
- VNA IC50 [2]: 81 nM
- VNA IC50 [3]: 201 nM
- VNA IC50 [4]: 160 nM
- VNA IC50 [5]: 104 nM

B13: MD1214 (bispecific antibody)
chain: EVQLVESGGGLVQPGGSLRLSCAVSISIFDIYAMDWYRQAPGKQRDLVATSFRDGSTNYADSVKGRFTISRDNAKNTLYLQMNSLKPEDTAVYLCHVSLYRDPLGVAGGMGVYWGKGALVTVSSAAAGGGGSGGGGSGGGGSEVQLVESGGGLVQAGGSLKLSCAASGRTYAMGWFRQAPGKEREFVAHINALGTRTYYSDSVKGRFTISRDNAKNTEYLEMNNLKPEDTAVYYCTAQGQWRAAPVAVAAEYEFWGQGTQVTVSS
- neutralization titer [9]: 1.4 nM
- neutralization titer [10]: 7.5 nM
- neutralization titer [7]: 12.5 nM
- neutralization titer [11]: 0.9 nM

B14: MD2320 (bispecific antibody)
chain: EVQLVESGGGLVQAGDSLRISCAASGRTLSIYSMGWFRQAPGKEREFVATIGWNSGRTFYPDSLKGRFTISRDNARNTLYLQMNNLRPEDTAVYYCAAAKGPLRLSSQADYWGQGTQVTVSSGGGGSGGGGSEVQLVESGGGLVQPGGSLRLSCAVSISIFDIYAMDWYRQAPGKQRDLVATSFRDGSTNYADSVKGRFTISRDNAKNTLYLQMNSLKPEDTAVYLCHVSLYRDPLGVAGGMGVYWGKGALVTVSSGGGGSGGGGSEVQLVESGGGLVQPGGSLRLSCAATGFTLENKAIGWFRQTPGSEREGVLCISKSGSWTYYTDSMRGRFTISRDNAENTVYLQMDSLKPEDTAVYYCATTTAGGGLCWDGTTFSRLASSWGQGTQVTVSS
- average neutralization titer [6]: 15.3 nM
- average neutralization titer [7]: > 1000 nM
- average neutralization titer [8]: 15.3 nM
